Data taken from patent US20240287172A1 (SCIRHOM, published 2024).
Substitutions are numbered along the chain they refer to.

T1: hiR1-FL-WT-T7 (human, UniProt Q96CC6 1-855)
T1 construct: on MEF-DKO cells
T1 sequence: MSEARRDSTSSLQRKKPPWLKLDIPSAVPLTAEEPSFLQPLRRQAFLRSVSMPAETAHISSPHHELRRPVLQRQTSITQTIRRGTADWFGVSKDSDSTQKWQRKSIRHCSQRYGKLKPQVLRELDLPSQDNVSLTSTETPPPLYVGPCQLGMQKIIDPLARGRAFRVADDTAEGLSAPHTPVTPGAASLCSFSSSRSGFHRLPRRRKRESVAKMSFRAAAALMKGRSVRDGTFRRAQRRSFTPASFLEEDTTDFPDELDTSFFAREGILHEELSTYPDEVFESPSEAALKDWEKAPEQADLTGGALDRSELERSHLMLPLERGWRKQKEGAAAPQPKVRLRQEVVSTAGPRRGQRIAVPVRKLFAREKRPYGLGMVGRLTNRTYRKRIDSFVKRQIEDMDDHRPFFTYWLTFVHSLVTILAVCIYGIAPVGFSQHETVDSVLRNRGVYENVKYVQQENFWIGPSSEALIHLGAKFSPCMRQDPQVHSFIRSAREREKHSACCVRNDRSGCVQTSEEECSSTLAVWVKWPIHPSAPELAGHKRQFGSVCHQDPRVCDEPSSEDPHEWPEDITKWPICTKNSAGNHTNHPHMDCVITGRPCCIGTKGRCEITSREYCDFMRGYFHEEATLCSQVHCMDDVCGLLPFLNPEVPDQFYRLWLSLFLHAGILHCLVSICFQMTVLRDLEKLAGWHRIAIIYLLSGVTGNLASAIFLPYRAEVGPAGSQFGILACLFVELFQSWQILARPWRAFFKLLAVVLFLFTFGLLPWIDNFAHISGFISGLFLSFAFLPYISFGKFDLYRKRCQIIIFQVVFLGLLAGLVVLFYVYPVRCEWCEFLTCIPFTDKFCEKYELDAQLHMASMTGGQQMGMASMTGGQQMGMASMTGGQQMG

T2: hiR2-FL-G587A-T7 (human, UniProt Q6PJF5 1-856)
T2 sequence: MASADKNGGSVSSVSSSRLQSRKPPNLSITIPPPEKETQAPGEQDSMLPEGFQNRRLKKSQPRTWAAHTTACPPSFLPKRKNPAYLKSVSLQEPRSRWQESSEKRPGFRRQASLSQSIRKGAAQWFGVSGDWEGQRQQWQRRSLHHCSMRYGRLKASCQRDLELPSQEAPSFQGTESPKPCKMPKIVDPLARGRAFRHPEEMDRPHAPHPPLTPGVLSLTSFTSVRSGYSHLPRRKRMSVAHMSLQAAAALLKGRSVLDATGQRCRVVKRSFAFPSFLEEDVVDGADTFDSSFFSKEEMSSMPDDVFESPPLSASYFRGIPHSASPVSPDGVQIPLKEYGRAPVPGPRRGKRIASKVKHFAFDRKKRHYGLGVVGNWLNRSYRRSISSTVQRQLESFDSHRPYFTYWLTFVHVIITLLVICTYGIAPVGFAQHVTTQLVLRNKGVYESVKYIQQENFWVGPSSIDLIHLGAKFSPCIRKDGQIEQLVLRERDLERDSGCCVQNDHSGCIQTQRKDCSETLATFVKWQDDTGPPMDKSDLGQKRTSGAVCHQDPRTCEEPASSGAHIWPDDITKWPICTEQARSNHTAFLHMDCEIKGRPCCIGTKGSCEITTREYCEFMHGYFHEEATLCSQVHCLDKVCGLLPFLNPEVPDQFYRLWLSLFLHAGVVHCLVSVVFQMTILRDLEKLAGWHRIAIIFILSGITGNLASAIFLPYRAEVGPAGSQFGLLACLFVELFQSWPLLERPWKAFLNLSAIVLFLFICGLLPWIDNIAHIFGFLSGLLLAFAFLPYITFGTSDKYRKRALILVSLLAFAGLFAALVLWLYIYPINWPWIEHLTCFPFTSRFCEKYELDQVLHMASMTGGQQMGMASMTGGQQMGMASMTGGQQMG

B1: antibody 42 (antibody, V domains shown)
VH: QVTLKESGPGILQPSQTLSLTCSLSGFSLSTFGRGVGWIRQPSGKGLEWLAHIWWDDEKYYNPALKSRLTISKDTSKNQVFLRIANVDTADTATYYCARIQNYGSNYWYFDVWGTGTTVTVSS
VL: LIVLTQSPAIMSASPGEKVTMTCGATSRISYMFWYQQKPGSSPRVLIYDTSNLASGVPVRFSGSGSGTSYSLTISRVEAEDVATYYCQQWNSYPLTFGAGTKLELK
notes: mouse IgG, kappa light chain; also called clone #42; purified antibody 42
B2: antibody 43 (antibody, V domains shown)
VH: B1 VH with T3A, L24F, R34M, P42S, H52N, E58D, T75A, V80A, R83K, Q101G
VL: B1 VL with L1Q, K18R, G24S, T26N, F33Y, V45L, V77M, V82A, Y86N, N91S
notes: mouse IgG, kappa light chain; also called clone #43; purified antibody 43
B3: antibody 44 (antibody, V domains shown)
VH: B1 VH with L24F, R34M, G44E, E58D, V80I, R83K, A85T, D91E, A98S, Q101G
VL: QIVLTQSPAVMSASPGEKVTMTCTASSSVYYMYWYQQTPGSSPRLLIYDTSNLASGVPVRFSGSGSGTSYSLTISRMEAEDAATYYCQQWNTYPLTFGAGTKLELK
notes: mouse IgG, kappa light chain; also called clone #44; purified antibody 44
B4: antibody 34 (antibody, V domains shown)
VH: QVTLKESGPGILQPSQTLSLTCSFSGFSLSTFSLGVGWIRQSSGKGLEWLAHIWWDDEKYYNPALKSRLTISKDTSKNQVFLKIANVDAADTATYYCARAYYSKSYYALDYWGQGTSVTVSS
VL: DIQMTQSPSSLSASLGERVSLTCRASQEISGYLSWLQQKPDGTIKRLIYAASTLDSGVPKRFSGSRSGSDYSLAISSLESEDFADYYCLQYANFPFTFGSGTKLEIK
notes: mouse IgG, kappa light chain; also called clone #34; purified antibody 34
B5: antibody 50 (antibody, V domains shown)
VH: QVQLQQSGAELVRPGASVKVSCKASGYAFSNYLIEWVKQRPGQGLEWIGVINPGSGFTKYNEKFKGKATLTADKSSSTAYMQLSSLTSEDSAVYFCARGLYRAMDYWGQGTSVTVSS
VL: DIQMTQSPASQSASLGESVTITCLASQTIGTWLAWYQQKPGKSPQLLIYAAASLADGVPSRFSGGGSGTKFSFKISSLQAEDFVNYYCQQIYSTPYTFGGGTKLEIK
notes: mouse IgG, kappa light chain; also called clone #50; purified antibody 50
B6: antibody 48 (antibody, V domains shown)
VH: B5 VH with A9T, A16T, S30T, A79V, Q82H
VL: B5 VL with G30A, A50G, A52T, S53T, N85S, I91L
notes: mouse IgG, kappa light chain; also called clone #48; purified antibody 48

What follows are binders tested against T1, hiR1-FL-WT-T7 (assay: FACS on MEF-DKO cells).

Row | Binder | binding result
1 | B1 | no binding (tested: 3 µg/ml)
2 | B2 | no binding (tested: 3 µg/ml)
3 | B3 | no binding (tested: 3 µg/ml)
4 | B4 | no binding (tested: 3 µg/ml)
5 | B5 | no binding (tested: 3 µg/ml)

Each binder was assayed against T2, hiR2-FL-G587A-T7 (assay: FACS on MEF-DKO cells expressing the variant, 3 µg/ml antibody).
Summary of the method: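 Two incubations on ice, each 1 hour: test antibody (3 μg/ml) or FACS buffer only, then PE anti-mouse F(ab′)2 at 1:100 in the dark. Centrifugation and washes used 4° C; staining quantified on a flow cytometer.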

Row | Binder | loss of binding vs wild type [%]
6 | B2 | ≥ 30
7 | B3 | ≥ 30
8 | B6 | ≥ 30
9 | B5 | ≥ 60
